Assay results taken from the supplement of paper PMC10899765.

The sequences below were run on MCF10A (assay: one-nucleolus phenotype percent effect (relative to siNT 0% and siNOL11 100%); higher = more cells with one nucleolus (ribosome biogenesis inhibition)). Conditions: 20 nM; 72 h.
Procedure: (§1)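 After 72 h, cells were fixed and stained with Hoechst and anti-fibrillarin, and nucleoli per nucleus were counted with CellProfiler. Values are plate-adjusted percent effect for the one-nucleolus and 5+ nucleoli phenotypes, normalised to siNT (0%) and to the positive controls siNOL11 or siKIF11 (100%), as the mean of biological triplicates. Percent viability is the nuclei count relative to siNT.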

| Sequence | one-nucleolus phenotype percent effect [%] |
| --- | --- |
| AUUCUAAUUUCUCCACGUCUUU [hsa-miR-576-5p] | 1.07 |
| UAUGGAAAGACUUUGCCACUCU [hsa-miR-3688-3p] | -10.8 |
| UGAGGGCUCCAGGUGACGGUGG [hsa-miR-4721] | 27.2 |
| AUCAGGGCUUGUGGAAUGGGAAG [hsa-miR-3127-5p] | 49.5 |
| CUCCUGAGCCAUUCUGAGCCUC [hsa-miR-1200] | 27.4 |
| CAAAUGAGCUUAAUUUCCUUUU [hsa-miR-1252-3p] | -15.1 |
| AAGUCCUGCUUCUGUUGCAG [hsa-miR-6838-3p] | -6.74 |
| GUGGGUUGGGGCGGGCUCUG [hsa-miR-3940-5p] | -5.1 |
| UCCUAAAUCUGAAAGUCCAAAA [hsa-miR-5009-3p] | -25.9 |
| CAGGAUCCACAGAGCUAGUCCA [hsa-miR-4661-3p] | 7.03 |
| UCGAGGAGCUCACAGUCUAGU [hsa-miR-151a-5p] | -6 |
| GGUCUAGGCCCGGUGAGAGACUC [hsa-miR-8078] | -3.5 |
| UAUGUGACCUCGGAUGAAUCA [hsa-miR-4501] | 40.8 |
| UUCUGAGCUGAGGACAG [hsa-miR-4303] | -2.54 |
| CAAAGUCCUUCCUAUUUUUCCC [hsa-miR-6507-3p] | -3.22 |
| GGGGAGCGAGGGGCGGGGC [hsa-miR-6090] | -21.8 |
| AUGUGGGCUCAGGCUCA [hsa-miR-4296] | 44.2 |
| CUGGAGUCUAGGAUUCCA [hsa-miR-4309] | 33.6 |
| UUGGACGGUAAGGUUAAGCAA [hsa-miR-4804-5p] | 9.42 |
| CAGCGGAGCCUGGAGAGAAGG [hsa-miR-7846-3p] | 11.9 |
| AAUCUGAGAAGGCGCACAAGGU [hsa-miR-3200-5p] | 2.91 |
| UGGUGGUUUACAAAGUAAUUCA [hsa-miR-876-3p] | 57.7 |
| GGCGGCGGCGGAGGCGGGGG [hsa-miR-3960] | 26.8 |
| ACUCCAUUUGUUUUGAUGAUGGA [hsa-miR-136-5p] | -13 |
| GAACUCACCCUCUGCUCCCAG [hsa-miR-6750-3p] | -8.73 |
| AGGGGUGGUGUUGGGACAGCUCCGU [hsa-miR-608] | 8.02 |
| UUCUUUGUUUUUAAUUCACAG [hsa-miR-6844] | -15.7 |
| UAGCCUUCAGAUCUUGGUGUUUU [hsa-miR-3614-3p] | 28.6 |
| ACGUUUGAAUGCUGUACAAGGC [hsa-miR-5707] | -26.7 |
| CCGGGGCAGAUUGGUGUAGGGUG [hsa-miR-5090] | -10.2 |

The sequences below were run on MCF10A (assay: percent viability (nuclei count relative to siNT); higher = more viable cells). Conditions: 20 nM; 72 h.
Procedure: as §1

| Sequence | percent viability [%] |
| --- | --- |
| UCCGGUUCUCAGGGCUCCACC [hsa-miR-671-3p] | 15.2 |
| UGGGAGCCAUGAGGGUCUGUGC [hsa-miR-6827-5p] | 15.6 |
| AGGAGGAAUUGGUGCUGGUCUU [hsa-miR-766-5p] | 5.17 |
| CUCUGAUCGCCCUCUCAGCUC [hsa-miR-3192-3p] | 34.9 |
| CUAAGAAGUUGACUGAAG [hsa-miR-3653] | 42 |
| GCCUGCUGGGGUGGAACCUGGU [hsa-miR-370] | 45.3 |
| GCAGGCACAGACAGCCCUGGC [hsa-miR-4269] | 30.1 |
| CAGUGCAAUAGUAUUGUCAAAGC [hsa-miR-301a-3p] | 126 |
| AUAGCAGCAUGAACCUGUCUCA [hsa-miR-4524a-5p] | 24.9 |
| UUCUGCUGCCGGCCAAGGC [hsa-miR-6071] | 27.8 |
| UGAAGCGCCUGUGCUCUGCCGAGA [hsa-miR-7706] | 40.2 |
| CCAGUGGGGCUGCUGUUAUCUG [hsa-miR-194-3p] | 138 |
| UUGGACUUUUUCAGAUUUGGGGAU [hsa-miR-5009-5p] | 43.5 |
| GGAUGGAGGAGGGGUCU [hsa-miR-4534] | 46.8 |
| UGUGUCACUCGAUGACCACUGU [hsa-miR-597] | 47.8 |
| UGCCCUGCAUGGUGUCCCCACAG [hsa-miR-6799-3p] | 41.1 |
| ACCUGAAUUACCAAAAGCUUU [hsa-miR-3140-5p] | 118 |
| UAGCACCAUUUGAAAUCGGUUA [hsa-miR-29c-3p] | 138 |
| UCCUCCUCUACCUCAUCCCAGU [hsa-miR-5193] | 35.1 |
| AUGAAGUGCACUCAUGAUAUGU [hsa-miR-3616-5p] | 27.9 |

| Sequence | percent viability [%] |
| --- | --- |
| UCCCUGCCCCCAUACUCCCAG [hsa-miR-6752-3p] | 28.7 |
| CUCACUCUCAGUCCCUCCCU [hsa-miR-6794-3p] | 88.6 |
| CAAAGGCCACAUUCUCCUGUGCAC [hsa-miR-6768-3p] | 23.3 |
| AAGACGGGAGGAAAGAAGGGAG [hsa-miR-483-5p] | 51.5 |
| CAUGGGAGUUCGGGGUGGUUGC [hsa-miR-6871-5p] | 25.6 |
| UUGGGCUGGGCUGGGUUGGG [hsa-miR-1587] | 19.9 |
| GGACCCACCCGGCCGGGAAUA [hsa-miR-1180-5p] | 75.2 |
| AAAAGUACUUGCGGAUUUUGCU [hsa-miR-548k] | 75.4 |
| UCUGACAUCAGUGAUUCUCCUG [hsa-miR-6719-3p] | 115 |
| AUUCUAAUUUCUCCACGUCUUU [hsa-miR-576-5p] | 100 |
| UAUGGAAAGACUUUGCCACUCU [hsa-miR-3688-3p] | 54 |
| UGAGGGCUCCAGGUGACGGUGG [hsa-miR-4721] | 22 |
| AUCAGGGCUUGUGGAAUGGGAAG [hsa-miR-3127-5p] | 18.4 |
| CUCCUGAGCCAUUCUGAGCCUC [hsa-miR-1200] | 58 |
| CAAAUGAGCUUAAUUUCCUUUU [hsa-miR-1252-3p] | 160 |
| AAGUCCUGCUUCUGUUGCAG [hsa-miR-6838-3p] | 56.4 |
| GUGGGUUGGGGCGGGCUCUG [hsa-miR-3940-5p] | 52.7 |
| UCCUAAAUCUGAAAGUCCAAAA [hsa-miR-5009-3p] | 117 |
| CAGGAUCCACAGAGCUAGUCCA [hsa-miR-4661-3p] | 31.4 |
| UCGAGGAGCUCACAGUCUAGU [hsa-miR-151a-5p] | 86.8 |

| Sequence | percent viability [%] |
| --- | --- |
| GGUCUAGGCCCGGUGAGAGACUC [hsa-miR-8078] | 21 |
| UAUGUGACCUCGGAUGAAUCA [hsa-miR-4501] | 19.8 |
| UUCUGAGCUGAGGACAG [hsa-miR-4303] | 45.5 |
| CAAAGUCCUUCCUAUUUUUCCC [hsa-miR-6507-3p] | 104 |
| GGGGAGCGAGGGGCGGGGC [hsa-miR-6090] | 164 |
| AUGUGGGCUCAGGCUCA [hsa-miR-4296] | 26.9 |
| CUGGAGUCUAGGAUUCCA [hsa-miR-4309] | 33.2 |
| UUGGACGGUAAGGUUAAGCAA [hsa-miR-4804-5p] | 35.3 |
| CAGCGGAGCCUGGAGAGAAGG [hsa-miR-7846-3p] | 41.6 |
| AAUCUGAGAAGGCGCACAAGGU [hsa-miR-3200-5p] | 32.7 |
| UGGUGGUUUACAAAGUAAUUCA [hsa-miR-876-3p] | 10.9 |
| GGCGGCGGCGGAGGCGGGGG [hsa-miR-3960] | 47.6 |
| ACUCCAUUUGUUUUGAUGAUGGA [hsa-miR-136-5p] | 107 |
| GAACUCACCCUCUGCUCCCAG [hsa-miR-6750-3p] | 99 |
| AGGGGUGGUGUUGGGACAGCUCCGU [hsa-miR-608] | 10.6 |
| UUCUUUGUUUUUAAUUCACAG [hsa-miR-6844] | 70 |
| UAGCCUUCAGAUCUUGGUGUUUU [hsa-miR-3614-3p] | 51.5 |
| ACGUUUGAAUGCUGUACAAGGC [hsa-miR-5707] | 185 |
| CCGGGGCAGAUUGGUGUAGGGUG [hsa-miR-5090] | 82 |
